Assay results reported in IntAct's records for PubMed 12713445.

Experiments:
[1] = target: dlg2_human DLG2 (UniProt Q15700)
[2] = target: dlg3_human DLG3 (UniProt Q92796)
Chain of UniProt Q92796 (Q92796 whole entry): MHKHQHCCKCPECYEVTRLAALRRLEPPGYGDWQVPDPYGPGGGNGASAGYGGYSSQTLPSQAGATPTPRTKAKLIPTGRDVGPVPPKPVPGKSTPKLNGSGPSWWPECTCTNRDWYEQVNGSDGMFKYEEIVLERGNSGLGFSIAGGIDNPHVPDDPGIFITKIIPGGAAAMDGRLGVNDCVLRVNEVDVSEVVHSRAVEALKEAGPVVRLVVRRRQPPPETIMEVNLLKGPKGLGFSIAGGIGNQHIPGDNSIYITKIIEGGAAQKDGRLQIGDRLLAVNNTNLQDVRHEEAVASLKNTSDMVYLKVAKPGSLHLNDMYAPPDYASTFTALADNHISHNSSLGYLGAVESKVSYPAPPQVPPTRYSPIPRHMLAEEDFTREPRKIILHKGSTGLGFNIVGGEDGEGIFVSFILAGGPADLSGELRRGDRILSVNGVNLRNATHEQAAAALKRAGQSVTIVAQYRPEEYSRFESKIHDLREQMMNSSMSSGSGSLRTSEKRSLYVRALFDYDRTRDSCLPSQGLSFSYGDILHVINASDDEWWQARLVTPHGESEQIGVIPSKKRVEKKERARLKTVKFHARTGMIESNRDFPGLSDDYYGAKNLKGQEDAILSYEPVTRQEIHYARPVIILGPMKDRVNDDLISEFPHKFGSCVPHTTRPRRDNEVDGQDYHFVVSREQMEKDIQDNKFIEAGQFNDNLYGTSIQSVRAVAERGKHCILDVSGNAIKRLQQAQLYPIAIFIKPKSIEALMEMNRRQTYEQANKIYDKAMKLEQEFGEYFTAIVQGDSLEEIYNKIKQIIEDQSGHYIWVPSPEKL

Chain of UniProt Q15700 (Q15700 whole entry, looked up): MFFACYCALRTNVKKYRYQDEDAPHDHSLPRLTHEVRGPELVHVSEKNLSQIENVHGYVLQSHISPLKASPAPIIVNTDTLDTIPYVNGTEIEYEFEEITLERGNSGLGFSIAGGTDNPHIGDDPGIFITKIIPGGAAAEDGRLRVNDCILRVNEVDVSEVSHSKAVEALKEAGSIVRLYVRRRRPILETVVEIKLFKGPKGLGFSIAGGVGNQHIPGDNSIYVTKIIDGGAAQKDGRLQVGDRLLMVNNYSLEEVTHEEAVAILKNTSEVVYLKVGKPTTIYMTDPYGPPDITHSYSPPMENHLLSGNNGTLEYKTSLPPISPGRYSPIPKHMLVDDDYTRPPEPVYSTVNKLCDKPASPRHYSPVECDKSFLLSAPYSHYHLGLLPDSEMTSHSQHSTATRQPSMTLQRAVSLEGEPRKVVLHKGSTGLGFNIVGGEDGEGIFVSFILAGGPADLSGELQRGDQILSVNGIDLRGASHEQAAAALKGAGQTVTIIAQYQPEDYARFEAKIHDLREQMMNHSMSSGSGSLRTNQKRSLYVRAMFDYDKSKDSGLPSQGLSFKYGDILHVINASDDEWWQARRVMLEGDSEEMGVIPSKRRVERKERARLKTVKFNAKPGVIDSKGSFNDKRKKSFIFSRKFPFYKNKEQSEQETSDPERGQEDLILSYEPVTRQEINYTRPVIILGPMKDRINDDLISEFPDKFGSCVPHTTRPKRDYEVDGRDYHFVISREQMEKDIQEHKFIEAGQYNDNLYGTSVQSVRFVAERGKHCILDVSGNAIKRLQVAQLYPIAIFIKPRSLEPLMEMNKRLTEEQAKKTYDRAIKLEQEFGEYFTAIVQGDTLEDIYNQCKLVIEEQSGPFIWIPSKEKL

**Q.** With “Low-density lipoprotein receptor-related protein 2 (Homo sapiens), P98164 S4653V;V4655S” as the substance, how does the “effect of a mutation on the interaction” value [1] read?
**A.** disrupting interaction strength

**Q.** And the “effect of a mutation on the interaction” value [2]?
**A.** disrupting interaction strength
